According to patent US10584341, “Antagonistic PDL1 aptamers and their applications in cancer therapy” (Academia Sinica):
Read-outs that look alike come from different tables or passages of the source.

Assays:
[1] = target: T1, PDL1 (CD274, B7-H1) (Homo sapiens, UniProt Q9NZQ7 Q9NZQ7:19-238); test: filter; passed cut-off of 5 for PDL1/BSA signal, qPCR
Description: Evaluation of the Relative Binding Ability of Candidate PDL1 Aptamers Using Nitrocellulose Filter Binding Assay The sequences of candidate PDL1 targeting aptamers were ranked by output reads from next-generation sequencing and sequences with output reads over 100 were analyzed. Among them, top 50 candidate aptamer sequences accounted for over 85% output reads. To evaluate their binding abilities toward PDL1, these top 50 candidate aptamers were synthesized and analyzed by nitrocellulose filter binding assay. The binding abilities toward BSA were used as negative control. In brief, candidate aptamer was incubated with PDL1 or BSA, respectively. Aptamer-protein complexes were collected by nitrocellulose filter and eluted by heating. The number of eluted aptamer was quantified by quantitative PCR and normalized by dividing the signal from PDL1 group to signal from BSA group. In order to find out the PDL1 aptamer with higher specificity, the cut-off value was set at 5.

[2] = target: T1, PDL1 (CD274, B7-H1); test: competition; ED50 for blocking PD-1:PDL1, ELISA
Description: Identification of Antagonistic PDL1 Aptamers Using an ELISA-Based Competition Assay To investigate the efficacy of candidate PDL1 aptamers as antagonistic agents, ELISA-based competition assay was performed. Human PDL1 recombinant protein (2 µg/ml) was coated onto wells of 96-well ELISA plates and blocked by BSA (10 mg/ml). Human PD-1 protein (0.6 µg/ml) and aptamer (500 nmole/l) were added into wells simultaneously. After washing away unbound human PD-1 protein, PD-1 protein which remained in wells was detected by HRP-labeled anti-human IgG antibody. TMB was used as HRP substrate for color development and absorbance at 652 nm was detected by ELISA plate reader. Remained human PD-1 protein amount was quantified using standard curve which built by serial diluted human PD-1 protein. Wells without PDL1 coating were used as negative control.
To further investigate 50% effective dose of AP14 and AP32 as PDL1 blocking agents, serial diluted AP14 and AP32 ranged from 12.5 nmole/l to 500 nmole/l were used in previously mentioned ELISA-based competition assay.

[3] = target: PDL1 (CD274) on CT26 cells (Mus musculus, UniProt Q9EP73 Q9EP73:19-290); test: flow; apparent Kd on CT26 cells; conditions: tags: endogenous, CT26 colorectal cancer cells; label: fluorescent dye (not specified)
Chain of PDL1 (CD274) on CT26 cells (Q9EP73 19-290, one chain of several): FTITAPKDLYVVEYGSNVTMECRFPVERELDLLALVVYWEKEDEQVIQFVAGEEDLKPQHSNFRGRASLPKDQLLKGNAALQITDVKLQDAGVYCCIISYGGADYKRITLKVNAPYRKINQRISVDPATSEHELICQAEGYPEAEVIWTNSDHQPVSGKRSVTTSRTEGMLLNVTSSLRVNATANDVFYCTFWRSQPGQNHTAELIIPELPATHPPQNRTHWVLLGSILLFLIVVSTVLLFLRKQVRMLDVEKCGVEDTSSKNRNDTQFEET

[4] = target: PDL1 (CD274) on LL/2 cells (Mus musculus, UniProt Q9EP73 Q9EP73:19-290); test: flow; apparent Kd on LL/2 cells; conditions: tags: endogenous, LL/2 lung carcinoma cells; label: fluorescent dye (not specified)
Chain of PDL1 (CD274) on LL/2 cells (Q9EP73 19-290, one chain of several): as above

[5] = Mfold-predicted long terminal stem and two short stem loops

T1 sequence (Q9NZQ7 19-238, one chain of several): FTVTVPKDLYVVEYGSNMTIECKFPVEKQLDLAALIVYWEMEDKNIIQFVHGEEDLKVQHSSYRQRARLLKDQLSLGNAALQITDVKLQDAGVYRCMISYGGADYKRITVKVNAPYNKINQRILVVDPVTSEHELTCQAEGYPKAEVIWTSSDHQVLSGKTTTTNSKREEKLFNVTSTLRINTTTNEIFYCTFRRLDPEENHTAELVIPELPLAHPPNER

B1: AP48 (ssDNA)
DNA: TCCCTACGGCGCTAACCATGTTCCTTTCGTTCTGCCTTTTCCTTCCGCCACCGTGCTACAAC
- binding signal [1]: > 5 fold over BSA

B2: AP14 (ssDNA)
DNA: TCCCTACGGCGCTAACCACTCAATAATTCCACTGCTACATACGTTTGCCACCGTGCTACAAC
- binding signal [1]: > 5 fold over BSA
- EC50 [2]: 41 nM

B3: AP36 (ssDNA)
DNA: TCCCTACGGCGCTAACCATGTTTTCGAAAGACAATCCGCTGCCCTGGCCACCGTGCTACAAC
- binding signal [1]: > 5 fold over BSA

B4: AP32 (62-nt) (ssDNA)
DNA: TCCCTACGGCGCTAACACATCAACTTGATAGACAACTGCGTCCACTGCCACCGTGCTACAAC
- binding signal [1, 5]: > 5 fold over BSA
- EC50 [2, 5]: 12 nM

B5: aptPDL1 fluorescently labeled (ssDNA)
DNA: ACGGGCCACATCAACTCATTGATAGACAATGCGTCCACTGCCCGT
- Kd [3]: ~250 nM
- Kd [4]: ~155 nM

B6: AP22 (ssDNA)
DNA: TCCCTACGGCGCTAACAAACTAGGGTCCATTTGTGTACCTGCGAGCCACCGTGCTACAAC
- binding signal [1]: > 5 fold over BSA

B7: AP33 (ssDNA)
DNA: TCCCTACGGCGCTAACCATCTGGTACCTTACGACGCTTCATCTCCCGCCACCGTGCTACAAC
- binding signal [1]: > 5 fold over BSA
